From patent US20230183351A1 (AVENCELL EUROPE, published 2023)

Molecular target: T1, PD-L1 on PD-L1-positive target cell lines DU-145 and U-251 (human, UniProt Q9NZQ7 19-290)
T1 construct: also called Programmed death ligand 1; CD274
Assay: flow cytometry on DU-145 and U-251 cells, shown as % binding of max over time at 4 C or 37 C
Description: Data is shown as % binding of max by normalizing the obtained MFI to the highest MFI measured. […] Data is shown as mean ± SD of one experiment measured in technical triplicates.
Subsequently, stained target cells were incubated for indicated time points at either 4° C. or 37° C. Binding of PD-L1-specific TMs was analyzed via flow cytometry using an PE-labeled α-His Ab.

T1 sequence (Q9NZQ7 19-290): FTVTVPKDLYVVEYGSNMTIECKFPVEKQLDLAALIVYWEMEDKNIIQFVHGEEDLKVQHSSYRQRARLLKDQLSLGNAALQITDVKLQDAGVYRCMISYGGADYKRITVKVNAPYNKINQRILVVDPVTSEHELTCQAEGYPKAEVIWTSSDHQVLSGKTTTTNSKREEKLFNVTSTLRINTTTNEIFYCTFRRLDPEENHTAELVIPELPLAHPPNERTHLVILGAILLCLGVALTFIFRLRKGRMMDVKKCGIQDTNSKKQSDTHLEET

binding result: binds
B1: TM-PD-L1-scFv5 (scFv)
scFv: GQVQLVQSGAEVKKPGASVKVSCKASGYTFTDYGFSWVRQAPGQGLEWMGWITAYNGNTNYAQKLQGRVTMTTDTSTSTVYMELRSLRSDDTAVYYCARDYFYGMDVWGQGTTVTVSSGGGGSGGGGSGGGGSEIVLTQSPATLSLSPGERATLSCRASQSVSSYLVWYQQKPGQAPRLLIYDASNRATGIPARFSGSGSGTDFTLTISSLEPEDFAVYYCQQRSNWPRTFGQGTKVEIKAAAKPLPEVTDEYARGGPGGGGSHHHHHHHH
notes: also called TMPD-L1v5
